According to patent publication US20260242735A1 (UNIVERSIT T BASEL, published 2026):

Legend:
[1] = target: human CD33 L229A (human, UniProt P20138 18-364); experiment: alanine scan, flow cytometry;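 also: HEK293-T cells transiently expressing single-residue alanine mutants of CD33 (alanine swapped to serine), antibody binding read by fluorescence in duplicate, background-subtracted, expressed relative to wild-type CD33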
[2] = target: human CD33 N230A (human, UniProt P20138 18-364); experiment: alanine scan, flow cytometry;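 also: HEK293-T cells transiently expressing single-residue alanine mutants of CD33 (alanine swapped to serine), antibody binding read by fluorescence in duplicate, background-subtracted, expressed relative to wild-type CD33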
[3] = target: human CD33 T208A (human, UniProt P20138 18-364); experiment: alanine scan, flow cytometry;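 also: HEK293-T cells transiently expressing single-residue alanine mutants of CD33 (alanine swapped to serine), antibody binding read by fluorescence in duplicate, background-subtracted, expressed relative to wild-type CD33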
[4] = target: human CD33 I242A (human, UniProt P20138 18-364); experiment: alanine scan, flow cytometry;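 also: HEK293-T cells transiently expressing single-residue alanine mutants of CD33 (alanine swapped to serine), antibody binding read by fluorescence in duplicate, background-subtracted, expressed relative to wild-type CD33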
[5] = target: human CD33 F216A (human, UniProt P20138 18-364); experiment: alanine scan, flow cytometry
[6] = target: human CD33 G245A (human, UniProt P20138 18-364); experiment: alanine scan, flow cytometry
[7] = target: human CD33 V214A (human, UniProt P20138 18-364); experiment: alanine scan, flow cytometry
[8] = target: human CD33 Q204A (human, UniProt P20138 18-364); experiment: alanine scan, flow cytometry
[9] = target: human CD33 T240A (human, UniProt P20138 18-364); experiment: alanine scan, flow cytometry
[10] = target: human CD33 A217S (human, UniProt P20138 18-364); experiment: alanine scan, flow cytometry
[11] = target: human CD33 V231A (human, UniProt P20138 18-364); experiment: alanine scan, flow cytometry
[12] = target: human CD33 A219S (human, UniProt P20138 18-364); experiment: alanine scan, flow cytometry
[13] = target: human CD33 V234A (human, UniProt P20138 18-364); experiment: alanine scan, flow cytometry
[14] = target: human CD33 H259A (human, UniProt P20138 18-364); experiment: alanine scan, flow cytometry
[15] = target: human CD33 N237A (human, UniProt P20138 18-364); experiment: alanine scan, flow cytometry
[16] = target: human CD33 E252A (human, UniProt P20138 18-364); experiment: alanine scan, flow cytometry
[17] = target: human CD33 K250A (human, UniProt P20138 18-364); experiment: alanine scan, flow cytometry
[18] = target: human CD33 G249A (human, UniProt P20138 18-364); experiment: alanine scan, flow cytometry
[19] = target: human CD33 extracellular region F21L (human, UniProt P20138 22-259); experiment: BLI Octet, IgG captured on AHC, CD33 analyte;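 also: CD33 variants and wild type run as analyte at 5, 50 and 500 nM, 700 s association then 1200 s dissociation, buffer-only reference subtracted, global 1:1 fit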
human CD33 extracellular region F21L, sequence (P20138 other isoform, or with tags, fused parts or gaps F21L F21L): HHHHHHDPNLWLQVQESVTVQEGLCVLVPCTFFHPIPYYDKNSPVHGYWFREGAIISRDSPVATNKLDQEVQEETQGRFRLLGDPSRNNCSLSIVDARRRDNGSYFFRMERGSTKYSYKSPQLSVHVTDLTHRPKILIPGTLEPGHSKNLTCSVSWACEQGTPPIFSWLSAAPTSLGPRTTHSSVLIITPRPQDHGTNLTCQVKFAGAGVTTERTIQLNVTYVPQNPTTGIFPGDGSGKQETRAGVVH
Description: Human CD33 wt and variants, were used as analyte at 3 different concentrations (500, 50 and 5 nM). Association of the analyte to the antibodies was monitored for 700 s and dissociation of the analyte from the antibodies was monitored for 1200 s. Reference subtraction was performed against buffer only wells. AHC tips were regenerated using 10 mM Glycine-HCl pH 1.7. Data were analyzed with Octet Data Analysis software HT 12.0. Data were fitted to a 1:1 binding model. Kinetic rates ka and kd and response signal were globally fitted.

human CD33 G249A, sequence (P20138 18-364 G249A limits assumed): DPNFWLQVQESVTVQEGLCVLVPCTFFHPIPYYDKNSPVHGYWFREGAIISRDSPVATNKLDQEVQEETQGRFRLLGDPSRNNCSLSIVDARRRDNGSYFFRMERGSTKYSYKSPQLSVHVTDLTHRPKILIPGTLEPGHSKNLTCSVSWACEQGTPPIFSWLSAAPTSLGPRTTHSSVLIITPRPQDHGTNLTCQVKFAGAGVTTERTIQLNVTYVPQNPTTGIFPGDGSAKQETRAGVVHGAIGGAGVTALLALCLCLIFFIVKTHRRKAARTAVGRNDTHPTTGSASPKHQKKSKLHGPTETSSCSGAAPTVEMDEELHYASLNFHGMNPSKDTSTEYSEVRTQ
human CD33 I242A, sequence (P20138 18-364 I242A limits assumed): as the sequence (P20138 18-364 G249A limits assumed) above, with I225A, A232G counted along it
human CD33 V214A, sequence (P20138 18-364 V214A limits assumed): as the sequence (P20138 18-364 G249A limits assumed) above, with V197A, A232G counted along it
human CD33 L229A, sequence (P20138 18-364 L229A limits assumed): as the sequence (P20138 18-364 G249A limits assumed) above, with L212A, A232G counted along it
human CD33 G245A, sequence (P20138 18-364 G245A limits assumed): as the sequence (P20138 18-364 G249A limits assumed) above, with G228A, A232G counted along it
human CD33 V234A, sequence (P20138 18-364 V234A limits assumed): as the sequence (P20138 18-364 G249A limits assumed) above, with V217A, A232G counted along it
human CD33 A217S, sequence (P20138 18-364 A217S limits assumed): as the sequence (P20138 18-364 G249A limits assumed) above, with A200S, A232G counted along it
human CD33 A219S, sequence (P20138 18-364 A219S limits assumed): as the sequence (P20138 18-364 G249A limits assumed) above, with A202S, A232G counted along it
human CD33 V231A, sequence (P20138 18-364 V231A limits assumed): as the sequence (P20138 18-364 G249A limits assumed) above, with V214A, A232G counted along it
human CD33 T240A, sequence (P20138 18-364 T240A limits assumed): as the sequence (P20138 18-364 G249A limits assumed) above, with T223A, A232G counted along it
human CD33 N230A, sequence (P20138 18-364 N230A limits assumed): as the sequence (P20138 18-364 G249A limits assumed) above, with N213A, A232G counted along it
human CD33 F216A, sequence (P20138 18-364 F216A limits assumed): as the sequence (P20138 18-364 G249A limits assumed) above, with F199A, A232G counted along it
human CD33 E252A, sequence (P20138 18-364 E252A limits assumed): as the sequence (P20138 18-364 G249A limits assumed) above, with A232G, E235A counted along it
human CD33 N237A, sequence (P20138 18-364 N237A limits assumed): as the sequence (P20138 18-364 G249A limits assumed) above, with N220A, A232G counted along it
human CD33 K250A, sequence (P20138 18-364 K250A limits assumed): as the sequence (P20138 18-364 G249A limits assumed) above, with A232G, K233A counted along it
human CD33 H259A, sequence (P20138 18-364 H259A limits assumed): as the sequence (P20138 18-364 G249A limits assumed) above, with A232G, H242A counted along it
human CD33 T208A, sequence (P20138 18-364 T208A limits assumed): as the sequence (P20138 18-364 G249A limits assumed) above, with T191A, A232G counted along it
human CD33 Q204A, sequence (P20138 18-364 Q204A limits assumed): as the sequence (P20138 18-364 G249A limits assumed) above, with Q187A, A232G counted along it

| Binder | Mean % WT Binding [1] [% WT binding] | Mean % WT Binding [2] [% WT binding] | Mean % WT Binding [3] [% WT binding] | Mean % WT Binding [4] [% WT binding] | Mean % WT Binding [5] [% WT binding] | Mean % WT Binding [6] [% WT binding] | Mean % WT Binding [7] [% WT binding] | Mean % WT Binding [8] [% WT binding] | Mean % WT Binding [9] [% WT binding] | Mean % WT Binding [10] [% WT binding] | Mean % WT Binding [11] [% WT binding] | Mean % WT Binding [12] [% WT binding] | Mean % WT Binding [13] [% WT binding] | Mean % WT Binding [14] [% WT binding] | Mean % WT Binding [15] [% WT binding] | Mean % WT Binding [16] [% WT binding] | Mean % WT Binding [17] [% WT binding] | Mean % WT Binding [18] [% WT binding] | % WT binding [19] [%] |
| --- | --- | --- | --- | --- | --- | --- | --- | --- | --- | --- | --- | --- | --- | --- | --- | --- | --- | --- | --- |
| Refmab #6 (antibody, V domains shown, Full-length format is human IgG1 Fc silent (PG-LALA); also made as Fab; The alanine scan used IgG or Fab) VH: QVQLQQPGAEVVKPGASVKMSCKASGYTFTSYYIHWIKQTPGQGLEWVGVIYPGNDDISYNQKFQGKATLTADKSSTTAYMQLSSLTSEDSAVYYCAREVRLRYFDVWGQGTTVTVSS VL: EIVLTQSPGSLAVSPGERVTMSCKSSQSVFFSSSQKNYLAWYQQIPGQSPRLLIYWASTRESGVPDRFTGSGSGTDFTLTISSVQPEDLAIYYCHQYLSSRTFGQGTKLEIK | 97.1 | 83.8 | 116 | 99 | 82.5 | 91.8 | 94.4 | 108 | 97 | 91 | 92.8 | 92 | 109 | 86.4 | 101 | 108 | 98 | 96.6 |  |
| Refmab #3 (antibody, human IgG1, V domains shown) VH: QVQLVQSGAEVKKPGSSVKVSCKASGYTFTDYNMHWVRQAPGQGLEWIGYIYPYNGGTGYNQKFKSKATITADESTNTAYMELSSLRSEDTAVYYCARGRPAMDYWGQGTLVTVSS VL: DIQMTQSPSSLSASVGDRVTITCRASESVDNYGISFMNWFQQKPGKAPKLLIYAASNQGSGVPSRFSGSGSGTDFTLTISSLQPDDFATYYCQQSKEVPWTFGQGTKVEIK |  |  |  |  |  |  |  |  |  |  |  |  |  |  |  |  |  |  | 0 |
| Refmab #4 (antibody, human IgG1, V domains shown) VH: QVQLVQSGAEVKKPGESVKVSCKASGYTFTNYGMNWVKQAPGQGLEWMGWINTYTGEPTYADKFQGRVTMTTDTSTSTAYMEIRNLGGDDTAVYYCARWSWSDGYYVYFDYWGQGTSVTVSS VL: DIVMTQSPDSLTVSLGERTTINCKSSQSVLDSSTNKNSLAWYQQKPGQPPKLLLSWASTRESGIPDRFSGSGSGTDFTLTIDSPQPEDSATYYCQQSAHFPITFGQGTRLEIK |  |  |  |  |  |  |  |  |  |  |  |  |  |  |  |  |  |  | 109 |
